# Assay results reported in US20220289850 (published 2022).
# Substitutions are numbered along the chain they refer to.
# T1: cynomolgus integrin avb8 (cynomolgus)
# T1 chain 1: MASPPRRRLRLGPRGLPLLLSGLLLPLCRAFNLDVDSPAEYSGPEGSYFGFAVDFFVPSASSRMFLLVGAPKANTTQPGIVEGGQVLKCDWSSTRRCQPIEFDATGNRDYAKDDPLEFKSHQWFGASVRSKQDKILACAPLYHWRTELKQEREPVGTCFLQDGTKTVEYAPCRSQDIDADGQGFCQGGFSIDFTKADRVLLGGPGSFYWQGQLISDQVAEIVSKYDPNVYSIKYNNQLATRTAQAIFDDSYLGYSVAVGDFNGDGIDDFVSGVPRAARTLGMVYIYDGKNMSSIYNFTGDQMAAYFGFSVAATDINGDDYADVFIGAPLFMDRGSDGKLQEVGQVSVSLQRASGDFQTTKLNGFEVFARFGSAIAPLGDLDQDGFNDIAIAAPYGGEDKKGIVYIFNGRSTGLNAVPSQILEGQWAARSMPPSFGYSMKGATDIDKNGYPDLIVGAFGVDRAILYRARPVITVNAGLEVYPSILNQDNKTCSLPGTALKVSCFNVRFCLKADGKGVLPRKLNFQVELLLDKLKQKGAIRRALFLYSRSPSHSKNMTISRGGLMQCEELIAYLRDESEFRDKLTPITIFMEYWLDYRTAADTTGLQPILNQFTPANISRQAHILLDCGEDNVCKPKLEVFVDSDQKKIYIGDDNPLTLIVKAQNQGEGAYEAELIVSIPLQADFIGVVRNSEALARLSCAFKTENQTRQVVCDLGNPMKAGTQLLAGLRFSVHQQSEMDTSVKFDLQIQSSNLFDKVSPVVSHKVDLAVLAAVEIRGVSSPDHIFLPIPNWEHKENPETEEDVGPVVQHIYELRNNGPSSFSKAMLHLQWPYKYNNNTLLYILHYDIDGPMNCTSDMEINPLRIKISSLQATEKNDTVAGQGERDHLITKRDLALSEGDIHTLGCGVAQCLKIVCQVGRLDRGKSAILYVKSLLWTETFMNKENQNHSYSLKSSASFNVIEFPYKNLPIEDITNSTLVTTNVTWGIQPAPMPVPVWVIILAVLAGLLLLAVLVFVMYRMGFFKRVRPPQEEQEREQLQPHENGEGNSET
# T1 chain 2: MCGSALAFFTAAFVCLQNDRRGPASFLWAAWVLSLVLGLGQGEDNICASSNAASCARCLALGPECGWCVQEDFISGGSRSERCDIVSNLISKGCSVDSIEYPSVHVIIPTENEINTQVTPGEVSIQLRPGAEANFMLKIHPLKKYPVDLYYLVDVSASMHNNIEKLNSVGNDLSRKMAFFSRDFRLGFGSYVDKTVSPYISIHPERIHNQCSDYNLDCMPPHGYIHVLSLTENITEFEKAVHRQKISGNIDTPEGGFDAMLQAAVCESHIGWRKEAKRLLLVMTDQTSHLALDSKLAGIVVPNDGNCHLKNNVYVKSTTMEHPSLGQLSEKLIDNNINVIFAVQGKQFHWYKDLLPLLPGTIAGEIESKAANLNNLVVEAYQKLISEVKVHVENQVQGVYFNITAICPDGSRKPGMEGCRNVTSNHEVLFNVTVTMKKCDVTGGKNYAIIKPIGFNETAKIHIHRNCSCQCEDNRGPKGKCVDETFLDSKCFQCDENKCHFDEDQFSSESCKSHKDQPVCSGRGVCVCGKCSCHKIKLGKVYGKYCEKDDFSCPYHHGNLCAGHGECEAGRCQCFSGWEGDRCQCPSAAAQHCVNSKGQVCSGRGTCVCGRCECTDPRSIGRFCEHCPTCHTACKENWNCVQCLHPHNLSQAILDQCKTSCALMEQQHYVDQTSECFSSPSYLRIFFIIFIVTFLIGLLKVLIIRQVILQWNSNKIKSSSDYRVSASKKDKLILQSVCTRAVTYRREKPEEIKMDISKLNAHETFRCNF
# B1: ADWA11 VH05/VK01 (VH05-2_VK01) Fab (antibody, V domains shown)
# VH: EVQLVESGGGLVQPGGSLRLSCAASGFNIKDYYMNWVRQAPGKGLEWVGWIDPDNGNTIYDPKFQGRFTISADTSKNSAYLQMNSLRAEDTAVYYCARRLLMDYWGQGTLVTVSS
# VL: DIQMTQSPSSLSASVGDRVTITCRSTKSLLHFNGNTYLFWYQQKPGKAPKRLIYYMSNLASGVPSRFSGSGSGTDFTLTISSLQPEDFATYYCMQSLEYPFTFGQGTKVEIK
# B2: ADWA11 2.4 Fab (antibody, V domains shown)
# VH: B1 VH with N55Q, D61E
# VL: B1 VL with L30S, N58S, M94Q, Q105G
# B3: Mouse hybridoma ADWA-11 Fab (antibody, V domains shown)
# VH: EVQLQQSGAELVRPGAFVKLSCKASGFNIKDYYMNWVLQRPEQGLEWIGWIDPDNGNTIYDPKFQGKASITADTSSNTAYLQLSSLTSEDTAVYYCARRLLMDYWGQGTSVTVSS
# VL: DIVMTQAAPSVPVTPGESVSISCRSTKSLLHFNGNTYLFWFLQRPGQSPQRLIYYMSNLASGVPDRFSGRGSGTDFTLRISRVEAEDVGVYYCMQSLEYPFTFGTGTKLEIK
# Molecular target: T1, cynomolgus integrin avb8
# Test: SPR 25C
row,Kd [nM],Binder
1,< 0.1,B1
2,< 0.2,B2
3,0.507,B3
